Experimental data: patent publication US20140099280A1

Experiments:
[1] = target: ST2 receptor on murine MC/9 mast cells (murine (MC/9 mast cell line)) (UniProt P14719); experiment: cell-based or functional assay
[2] = target: T1, truncated human IL-33 (IL-33aa112-270)
T1 chain: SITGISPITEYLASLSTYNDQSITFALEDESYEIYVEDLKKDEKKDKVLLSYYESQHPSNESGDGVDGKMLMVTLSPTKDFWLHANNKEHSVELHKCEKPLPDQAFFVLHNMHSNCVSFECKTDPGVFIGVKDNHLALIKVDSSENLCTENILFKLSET

[3] = target: T2, whole human interleukin 33 (IL-33aa1-270)
T2 chain: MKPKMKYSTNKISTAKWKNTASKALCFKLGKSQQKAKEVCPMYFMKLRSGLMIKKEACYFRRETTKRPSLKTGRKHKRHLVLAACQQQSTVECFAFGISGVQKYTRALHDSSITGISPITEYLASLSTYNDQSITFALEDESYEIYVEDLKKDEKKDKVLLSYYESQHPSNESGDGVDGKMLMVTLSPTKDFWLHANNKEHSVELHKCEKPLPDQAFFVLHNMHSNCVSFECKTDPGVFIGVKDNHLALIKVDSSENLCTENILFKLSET

Chain of UniProt P14719 (P14719 27-567): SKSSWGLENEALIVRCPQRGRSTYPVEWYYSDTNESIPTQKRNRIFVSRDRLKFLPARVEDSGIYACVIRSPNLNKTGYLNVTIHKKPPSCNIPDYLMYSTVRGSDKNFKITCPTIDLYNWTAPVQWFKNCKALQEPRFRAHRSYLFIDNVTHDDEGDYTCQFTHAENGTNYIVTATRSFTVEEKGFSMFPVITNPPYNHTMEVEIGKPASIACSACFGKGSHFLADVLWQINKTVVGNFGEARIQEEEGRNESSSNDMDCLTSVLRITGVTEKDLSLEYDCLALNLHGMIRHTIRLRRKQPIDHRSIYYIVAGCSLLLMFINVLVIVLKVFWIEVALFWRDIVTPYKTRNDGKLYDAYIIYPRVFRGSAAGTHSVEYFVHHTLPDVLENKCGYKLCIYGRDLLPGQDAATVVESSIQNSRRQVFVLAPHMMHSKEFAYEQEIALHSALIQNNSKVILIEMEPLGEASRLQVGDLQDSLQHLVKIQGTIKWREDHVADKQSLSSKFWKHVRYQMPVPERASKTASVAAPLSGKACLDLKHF

IL-33aa95-270 (from UniProt O95760 95-270) (ligand)
secretion of IL-6 by MC/9 mast cells (ELISA), relative to whole IL-33 (fold vs whole IL-33) [1]: 4

IL-33aa109-270 (from UniProt O95760 109-270) (ligand)
secretion of IL-6 by MC/9 mast cells (ELISA), relative to whole IL-33 (fold vs whole IL-33) [1]: 4

IL-33aa99-270 (from UniProt O95760 99-270) (ligand)
secretion of IL-6 by MC/9 mast cells (ELISA), relative to whole IL-33 (fold vs whole IL-33) [1]: 4

B1: leukocyte proteinase 3 (protein)
chain: IVGGHEAQPHSRPYMASLQMRGNPGSHFCGGTLIHPSFVLTAAHCLRDIPQRLVNVVLGAHNVRTQEPTQQHFSVAQVFLNNYDAENKLNDVLLIQLSSPANLSASVATVQLPQQDQPVPHGTQCLAMGWGRVGAHDPPAQVLQELNVTVVTFFCRPHNICTFVPRRKAGICFGDSGGPLICDGIIQGIDSFVIWGCATRLFPDFFTRVALYVDWIRSTLR
cleavage in vitro, western blot [2]: the truncated form IL-33aa112-270, which remains intact in the presence of these proteases | cleavage in vitro, SDS-PAGE and western blot [3]: Human IL-33 is the target of the recombinant proteases Cathepsin G (Cat G), Elastase 2 (Elastase), and Proteinase 3 (PR3), which generate, in vitro, the three mature fragments IL-33aa95-270, IL-33aa99-270 and IL-33aa109-270

B2: neutrophil elastase 2 (protein)
chain: IVGGRRARPHAWPFMVSLQLRGGHFCGATLIAPNFVMSAAHCVANVNVRAVRVVLGAHNLSRREPTRQVFAVQRIFENGYDPVNLLNDIVILQLNGSATINANVQVAQLPAQGRRLGNGVQCLAMGWGLLGRNRGIASVLQELNVTVVTSLCRRSNVCTLVRGRQAGVCFGDSGSPLVCNGLIHGIASFVRGGCASGLYPDAFAPVAQFVNWIDSIIQ
cleavage in vitro, western blot [2]: the truncated form IL-33aa112-270, which remains intact in the presence of these proteases | cleavage in vitro, SDS-PAGE and western blot [3]: Human IL-33 is the target of the recombinant proteases Cathepsin G (Cat G), Elastase 2 (Elastase), and Proteinase 3 (PR3), which generate, in vitro, the three mature fragments IL-33aa95-270, IL-33aa99-270 and IL-33aa109-270

B3: human cathepsin G (protein)
chain: IIGGRESRPHSRPYMAYLQIQSPAGQSRCGGFLVREDFVLTAAHCWGSNINVTLGAHNIQRRENTQQHITARRAIRHPQYNQRTIQNDIMLLQLSRRVRRNRNVNPVALPRAQEGLRPGTLCTVAGWGRVSMRRGTDTLREVQLRVQRDRQCLRIFGSYDPRRQICVGDRRERKAAFKGDSGGPLLCNNVAHGIVSYGKSSGVPPEVFTRVSSFLPWIRTTMRS
cleavage in vitro, western blot [2]: the truncated form IL-33aa112-270, which remains intact in the presence of these proteases | cleavage in vitro, SDS-PAGE and western blot [3]: Human IL-33 is the target of the recombinant proteases Cathepsin G (Cat G), Elastase 2 (Elastase), and Proteinase 3 (PR3), which generate, in vitro, the three mature fragments IL-33aa95-270, IL-33aa99-270 and IL-33aa109-270
